Measurements: US5935824A, “Protein expression system” (Technologene, Inc., priority 1996, dated 1999)
No end group written: not given here.

How the values were obtained:
[1] = molecular target: T1, CPD-Y immobilized on cross-linked agarose (Saccharomyces cerevisiae, UniProt P00729); assay: Recirculating digestion of control peptide over CPD-Y/agarose column, HPLC; format: biochemical, yeast; settings: 100 μg/ml in PBS pH 6.5; gravity flow
T1 construct: purchased Pierce
T1 sequence (P00729 112-532): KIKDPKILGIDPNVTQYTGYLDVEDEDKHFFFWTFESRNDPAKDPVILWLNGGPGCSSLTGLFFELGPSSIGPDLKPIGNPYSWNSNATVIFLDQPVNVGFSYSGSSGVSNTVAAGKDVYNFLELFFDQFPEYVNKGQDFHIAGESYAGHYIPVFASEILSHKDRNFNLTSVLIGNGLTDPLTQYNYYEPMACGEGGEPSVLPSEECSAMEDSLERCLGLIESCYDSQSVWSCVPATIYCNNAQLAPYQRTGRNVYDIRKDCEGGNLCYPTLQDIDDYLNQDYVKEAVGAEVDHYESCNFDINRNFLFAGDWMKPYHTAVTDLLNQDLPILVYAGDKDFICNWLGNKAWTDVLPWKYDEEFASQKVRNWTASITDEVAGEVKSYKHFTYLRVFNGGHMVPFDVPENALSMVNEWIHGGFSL
Description: Ten milliliters of a solution containing 100 μg/ml of the control peptide in PBS (pH 6.5) was repeatedly passed through 1 ml of a matrix consisting of CPD-Y immobilized on cross-linked agarose (12.5 U/ml, Pierce). The 10 ml sample was applied to the top of a 1.0 cm Affinica column (Schleicher & Schuell) containing 1.0 ml of the immobilized CPD-Y/agarose and allowed to flow by gravity. An aliquot (100 μl) of the digestion reaction were taken and the remaining sample was reapplied to the column as the previous sample approached the matrix (i.e., the sample was recirculated through the column). Aliquots (100 μl) were removed after 1, 5, 11 and 17 passes over the immobilized CPD-Y/agarose column; 20 μl of these aliquots were analyzed by high pressure liquid chromatography (HPLC) using a TFA/acetonitrile gradient and a C-18 column (Hytach protein column). A Shimadzu HPLC spectrophotometer equipped with a UV recorder was adjusted to analyze the digestion products at 210 nm. The following buffers were used for the HPLC analysis. Buffer A consisted of 1.125% TFA and Buffer B consisted of 1.0% TFA in 80% acetonitrile. To achieve separation of the peptides produced by CPD-Y digestion of the control peptide, a gradient of 0-30% B buffer was applied over a 30 minute period.

[2] = molecular target: T2, carboxypeptidase Y (CPD-Y) immobilized to Acti-Disk (Saccharomyces cerevisiae, UniProt P00729); assay: Flow digestion of control peptide through CPD-Y immobilized on Acti-Disk, HPLC analysis; format: biochemical, yeast
T2 construct: purchased Sigma
T2 sequence (P00729 112-532): T1 sequence (P00729 112-532)
Description: To achieve limited, specific digestion of the control peptide (i.e., removal of the phenylalanine residue only) approximately 4 mg of CPD-Y (Sigma) was immobilized to a pre-activated (GTA) Acti-Disk Cartridge (25 mm; Arbor Technologies). The silicon-based matrix within the Acti-Disk is described in U.S. Pat. No. 3,862,030, the disclosure of which is herein incorporated by reference. Essentially, this matrix is a microporous fluid-permeable filter that has finely divided hydrophilic filler particles dispersed throughout a microporous matrix which are capable of binding large amounts of protein or enzyme. The matrix has an extremely large surface area (80 m^2 /gram) attributed to a large number of interconnected pores of non-uniform size distribution. The matrix is 60% porous and is commercially available in a wide variety of sizes and thicknesses for scale-up. This matrix represents a limited-diffusional matrix.
Immobilization of CPD-Y to the Acti-Disk cartridge was accomplished by recirculating 10 mls of a solution containing 1 mg/ml CPD-Y in 100 mM Na Citrate (pH 6.0) through the Acti-Disk according to the manufacturers protocol for 90 minutes at room temperature. The OD280 of the CPD-Y solution was measured before and after the immobilization procedure. The disk was washed extensively with 100 mM Tris-HCl (pH 8.0), 500 mM NaCl buffer until no protein was detected in the wash. The final concentration of enzyme per available fluid volume within the disk (65 nmoles/115 μl) was 0.565 mM (35 mg/ml). The porous nature of the Acti-Disk matrix immobilizes the carboxypeptidase enzyme on the […] of the matrix allowing a more consistent exposure of the substrate to enzyme than do the traditional cross linked agarose matrixes.
The control peptide (SEQ ID NO:70), at a concentration of 100 μg/ml, was passed through the CPD-Y Disk at flow rates ranging from 4 ml/min to 100 μl/min; a […] pump (Pharmacia) was used to regulate the flow. A 2 ml sample of the flow digestion at 4 ml/min was collected. The setting on the peristaltic pump was changed to 3 ml/min and the reaction was allowed to equilibrate. Five milliliters of the solution containing the control peptide processed at the lower flow rate (3 ml/min) was allowed to pass through the exit tubing before another 2 ml sample was collected. This procedure was repeated at each designated flow rate. An aliquot (25 μl) of each sample was run on the Hytach protein column as described above. In Table 4 the time refers to time spent in the reaction chamber (i.e., the Acti-Disk).
This value was determined by comparing the initial velocity of the control peptide CPD-Y-Acti-Disk flow digestion to the manufacturer's specific activity for free enzyme (i.e., enzyme present in solution) through the use of the Michaelis-Menton rate equation. The specific activity for Phe-Ala substrate 100 μmoles/mg (Sigma) was converted to activity by multiplying by the amount of enzyme immobilized within the Acti-Disk matrix (4 mg). […] This value compares well to the value that can be approximated from the Kcat data provided by Kuhn. The Kcat value for the cleavage of the Ser-Phe bond by free CPD-Y can be deduced from Kuhn's data to be approximately 400/min and this value was used to calculate the maximum initial velocity (Vo at [S]=79 μM) for 100% activity of the immobilized enzyme. […] 100% activity (Vo) for 79 μM flow digestion experiments is calculated using the theoretical KM =0.69 mM deduced from Kuhn's data, Vo=23.2 mM/min. Initial velocity Vo for control peptide flow experiments were determined by plotting μM of product produced versus seconds of incubation within the immobilization matrix of the Acti-Disk (see FIG. 29).
In FIG. 29, the log ([S]/[S]-[P]) (in μM) is plotted against the incubation time (in seconds). For the results shown in FIG. 29, the following calculations apply: the 4000 μl/min flow rate through 115 μl reaction matrix equals 1.73 seconds within the matrix. […]

[3] = molecular target: T2, carboxypeptidase Y (CPD-Y) immobilized to Acti-Disk; settings: free CPD-Y; deduced from Kuhn; cited from earlier work
[4] = molecular target: T2, carboxypeptidase Y (CPD-Y) immobilized to Acti-Disk; assay: Flow digestion of Lys-Lys peptide through CPD-Y Acti Disk, modified ninhydrin assay; format: biochemical, yeast; settings: 400 μM peptide; pH 5.75; flow 2 ml/min and 500 μl/min
Description: The peptide sequence is […](SEQ ID NO:73) (Sigma; herein after referred to as the Lys-Lys peptide). Analysis of the of the reaction rates required the use of a modified ninhydrin assay developed by Doi, et al. for the analysis of peptidase activity [Anal. Biochem. 118:173 (1981)]. Compared to the ninhydrin assays described above, the pH of the ninhydrin solution is reduced (pH=4.6) and the heating time is shortened (less than or equal to 20 minutes) such that only free amino acids react at appreciable rates. Incubation times were strictly controlled by performing incubation at elevated temperatures in a programmable thermocycler (Hybaid).
The Lys-Lys peptide was suspended at a concentration of 400 μM in 100 mM Citrate buffer, 100 mM NaCl, pH 5.75 and subjected to flow digestions at 2 ml/min and 500 μl/min. The amount of free lysine released was quantified by mixing 200 μl of flow sample with 200 μl 0.2 M NaCitrate, pH 4.6 and 100 μl of 2.5% ninhydrin in methyl cellusolve (Sigma), 0.03% ascorbic acid. […] The OD570 was determined and the values were converted to μM of product in order to determine the first order rate constant for the Lys-Lys bond in the CPD-Y Acti Disk flow digestion (k=0.160). This is the same value determined for the N-CBZ-Gly-Pro dipeptide. […]

**Q.** For ALKDAQTNSSSF [control peptide], which “Passes needed to substantially decrease the amount of full length peptide” value [1] is on record?
**A.** Its value is greater than 15 passes.

**Q.** What about the “Initial reaction rate (Vo), observed” value ([2]; 79 μM control peptide, initial slope of fitted curve) of the same sequence?
**A.** The value was roughly 3.6 mM/min.

**Q.** What about the “Cleavage of the ultimate bond (Ser-Phe)” value ([2]; 100 μg/ml, single pass, flow rate 500 μl/ml (so in the source)) of the same sequence?
**A.** The value was 86%.

**Q.** And the “Cleavage of the ultimate bond (Ser-Phe)” value ([2]; 5 ml recirculated 20 minutes at the same flow rate)?
**A.** The value was 96%.

**Q.** What about the “Vmax for 100% activity” value ([2]; Kcat 400/min × 0.565 mM enzyme) of the same sequence?
**A.** Its value is 226 mM/min.

**Q.** What about the “Vo for 100% activity of the immobilized enzyme” value ([2]; [S]=79 μM, theoretical KM 0.69 mM) of the same sequence?
**A.** Its value is 23.2 mM/min.

**Q.** What about the “Product” value ([2]; control peptide 100 μg/ml, flow rate 0.25 ml/min, 27.6 sec in Acti-Disk) of the same sequence?
**A.** Its value is 72 µM.

**Q.** And the “% Product Remaining” value ([2]; control peptide 100 μg/ml, flow rate 0.25 ml/min, 27.6 sec in Acti-Disk, 0.46 min)?
**A.** Its value is 8.3%.

**Q.** And the “Product” value ([2]; flow rate 0.50 ml/min, 13.8 sec)?
**A.** Its value is 68 µM.

**Q.** What about the “% Product Remaining” value ([2]; flow rate 0.50 ml/min, 13.8 sec, 0.23 min) of the same sequence?
**A.** The value was 14.0%.

**Q.** What about the “Product” value ([2]; flow rate 1.0 ml/min, 6.9 sec) of the same sequence?
**A.** The value was 59 µM.

**Q.** What about the “% Product Remaining” value ([2]; flow rate 1.0 ml/min, 6.9 sec, 0.115 min) of the same sequence?
**A.** Its value is 25.6%.

**Q.** What about the “Product” value ([2]; flow rate 1.5 ml/min, 4.6 sec) of the same sequence?
**A.** Its value is 54 µM.

**Q.** What about the “% Product Remaining” value ([2]; flow rate 1.5 ml/min, 4.6 sec, 0.0766667 min) of the same sequence?
**A.** Its value is 32.4%.

**Q.** And the “Product” value ([2]; flow rate 2.0 ml/min, 3.45 sec)?
**A.** Its value is 48 µM.

**Q.** And the “% Product Remaining” value ([2]; flow rate 2.0 ml/min, 3.45 sec, 0.0575 min)?
**A.** The value was 38.7%.

**Q.** What about the “Product” value ([2]; flow rate 2.5 ml/min, 2.76 sec) of the same sequence?
**A.** The value was 45 µM.

**Q.** And the “% Product Remaining” value ([2]; flow rate 2.5 ml/min, 2.76 sec, 0.046 min)?
**A.** The value was 42.8%.

**Q.** What about the “Product” value ([2]; flow rate 3.0 ml/min, 2.3 sec) of the same sequence?
**A.** The value was 43 µM.

**Q.** And the “% Product Remaining” value ([2]; flow rate 3.0 ml/min, 2.3 sec, 0.0383333 min)?
**A.** Its value is 46.4%.

**Q.** What about the “Product” value ([2]; flow rate 4.0 ml/min, 1.73 sec) of the same sequence?
**A.** Its value is 39 µM.

**Q.** And the “% Product Remaining” value ([2]; flow rate 4.0 ml/min, 1.73 sec, 0.0288333 min)?
**A.** The value was 51.5%.

**Q.** And the “Cleavage of the second bond (Ser-Ser)” value ([2]; recirculation at 500 μl/min)?
**A.** The value was “not detectably cleaved”.

**Q.** What about the “Control peptide molecules with carboxy-terminal phenylalanine removed” value ([2]; varied flow rate and substrate concentration) of the same sequence?
**A.** The value was “approximately 96%”.

**Q.** What about the “Estimated Km for the Ser-Phe bond” value [3] of the same sequence?
**A.** Its value is 690 µM.

**Q.** And the “Kcat for the Ser-Phe bond” value [3]?
**A.** The value was 6.67 s⁻¹.

**Q.** With PLSRLSVAKK [Lys-Lys peptide] as the sequence, how does the “First order rate constant for the Lys-Lys bond (k)” value [4] read?
**A.** The value was 0.160.
